In this assay the test system is HEK 293T cells. Description: Cell detachment assay 24 h after transfection. The assay is classed as cell-based, human. The conditions noted are these: 24 h post-transfection, versus luciferase-transfected control cells, p<0.01 between the two constructs. Here is the method: Cell detachment was assessed as described before (Widau, Jin et al. 2010), by counting the adherent cells left in the tissue culture plate after 24 h of transfection with either DAPk WT or ΔP-Loop. Briefly, cells were washed twice in PBS to remove detached cells. Then, adherent cells were trypsinized and counted with a Countess® Automated Cell Counter (Invitrogen). The extent of cell detachment is defined as (the number of control cells—the number of treated cells)/(the number of control cells), where control cells are HEK 293T cell transected with the irrelevant protein luciferase.
The functional effects of the GTP binding on DAPk's ability to induce some of its canonical phenotypic effects in cell cultures, namely cell rounding and detachment, and membrane blebbing, was assessed. These DAPk associated cellular changes are dependent on DAPk's catalytic activity and have been successfully used in other studies to assess DAPk activity in vivo (Widau, Jin et al. 2010). The necessity of the GTP-binding to the ROC domain for the extent of these effects on HEK 293T cells was examined. This was achieved by comparing DAPk WT to its P-Loop deletant counterpart. FIG. 6A presents a western blot analysis showing even expression levels between the constructs used in the cell detachment assay, ruling out any possibility of false results generated by uneven expression levels. […]

This note sets out measurements from patent US9149523B2, “Compositions and methods for treating cancer and neurodegenerative diseases” (Yeda Research and Development Co. Ltd., priority 2010, dated 2015).

B1: WT protein: tagged human full-length death-associated protein kinase (DAPk), expressed by transfection (protein)
chain: MTVFRQENVDDYYDTGEELGSGQFAVVKKCREKSTGLQYAAKFIKKRRTKSSRRGVSREDIEREVSILKEIQHPNVITLHEVYENKTDVILILELVAGGELFDFLAEKESLTEEEATEFLKQILNGVYYLHSLQIAHFDLKPENIMLLDRNVPKPRIKIIDFGLAHKIDFGNEFKNIFGTPEFVAPEIVNYEPLGLEADMWSIGVITYILLSGASPFLGDTKQETLANVSAVNYEFEDEYFSNTSALAKDFIRRLLVKDPKKRMTIQDSLQHPWIKPKDTQQALSRKASAVNMEKFKKFAARKKWKQSVRLISLCQRLSRSFLSRSNMSVARSDDTLDEEDSFVMKAIIHAINDDNVPGLQHLLGSLSNYDVNQPNKHGTPPLLIAAGCGNIQILQLLIKRGSRIDVQDKGGSNAVYWAARHGHVDTLKFLSENKCPLDVKDKSGEMALHVAARYGHADVAQLLCSFGSNPNIQDKEEETPLHCAAWHGYYSVAKALCEAGCNVNIKNREGETPLLTASARGYHDIVECLAEHGADLNACDKDGHIALHLAVRRCQMEVIKTLLSQGCFVDYQDRHGNTPLHVACKDGNMPIVVALCEANCNLDISNKYGRTPLHLAANNGILDVVRYLCLMGASVEALTTDGKTAEDLARSEQHEHVAGLLARLRKDTHRGLFIQQLRPTQNLQPRIKLKLFGHSGSGKTTLVESLKCGLLRSFFRRRRPRLSSTNSSRFPPSPLASKPTVSVSINNLYPGCENVSVRSRSMMFEPGLTKGMLEVFVAPTHHPHCSADDQSTKAIDIQNAYLNGVGDFSVWEFSGNPVYFCCYDYFAANDPTSIHVVVFSLEEPYEIQLNQVIFWLSFLKSLVPVEEPIAFGGKLKNPLQVVLVATHADIMNVPRPAGGEFGYDKDTSLLKEIRNRFGNDLHISNKLFVLDAGASGSKDMKVLRNHLQEIRSQIVSVCPPMTHLCEKIISTLPSWRKLNGPNQLMSLQQFVYDVQDQLNPLASEEDLRRIAQQLHSTGEINIMQSETVQDVLLLDPRWLCTNVLGKLLSVETPRALHHYRGRYTVEDIQRLVPDSDVEELLQILDAMDICARDLSSGTMVDVPALIKTDNLHRSWADEEDEVMVYGGVRIVPVEHLTPFPCGIFHKVQVNLCRWIHQQSTEGDADIRLWVNGCKLANRGAELLVLLVNHGQGIEVQVRGLETEKIKCCLLLDSVCSTIENVMATTLPGLLTVKHYLSPQQLREHHEPVMIYQPRDFFRAQTLKETSLTNTMGGYKESFSSIMCFGCHDVYSQASLGMDIHASDLNLLTRRKLSRLLDPPDPLGKDWCLLAMNLGLPDLVAKYNTSNGAPKDFLPSPLHALLREWTTYPESTVGTLMSKLRELGRRDAADFLLKASSVFKINLDGNGQEAYASSCNSGTSYNSISSVVSR
modifications: left off: small tags and cut ends
notes: tagged human full-length death-associated protein kinase (DAPk), expressed by transfection
Take B1: the cell detachment is reported as 17.4%±7.4%.
